The values below are quoted from earlier work in article PMC3777542.

The target of series [1] is CD4 cytoplasmic tail (Homo sapiens) (UniProt P01730).
The target of the next series is Hck SH3 (Homo sapiens) (UniProt P08631).
The target in a further series is Hck (Homo sapiens) (UniProt P08631).
The target in series [2] is AP-2 hemicomplex (Homo sapiens) (UniProt O95782). The experiment in a line: SPR. (SPR reads the build-up and loss of mass on a sensor chip optically.)
Chain of UniProt O95782 (O95782 whole entry, chain 1 of 2): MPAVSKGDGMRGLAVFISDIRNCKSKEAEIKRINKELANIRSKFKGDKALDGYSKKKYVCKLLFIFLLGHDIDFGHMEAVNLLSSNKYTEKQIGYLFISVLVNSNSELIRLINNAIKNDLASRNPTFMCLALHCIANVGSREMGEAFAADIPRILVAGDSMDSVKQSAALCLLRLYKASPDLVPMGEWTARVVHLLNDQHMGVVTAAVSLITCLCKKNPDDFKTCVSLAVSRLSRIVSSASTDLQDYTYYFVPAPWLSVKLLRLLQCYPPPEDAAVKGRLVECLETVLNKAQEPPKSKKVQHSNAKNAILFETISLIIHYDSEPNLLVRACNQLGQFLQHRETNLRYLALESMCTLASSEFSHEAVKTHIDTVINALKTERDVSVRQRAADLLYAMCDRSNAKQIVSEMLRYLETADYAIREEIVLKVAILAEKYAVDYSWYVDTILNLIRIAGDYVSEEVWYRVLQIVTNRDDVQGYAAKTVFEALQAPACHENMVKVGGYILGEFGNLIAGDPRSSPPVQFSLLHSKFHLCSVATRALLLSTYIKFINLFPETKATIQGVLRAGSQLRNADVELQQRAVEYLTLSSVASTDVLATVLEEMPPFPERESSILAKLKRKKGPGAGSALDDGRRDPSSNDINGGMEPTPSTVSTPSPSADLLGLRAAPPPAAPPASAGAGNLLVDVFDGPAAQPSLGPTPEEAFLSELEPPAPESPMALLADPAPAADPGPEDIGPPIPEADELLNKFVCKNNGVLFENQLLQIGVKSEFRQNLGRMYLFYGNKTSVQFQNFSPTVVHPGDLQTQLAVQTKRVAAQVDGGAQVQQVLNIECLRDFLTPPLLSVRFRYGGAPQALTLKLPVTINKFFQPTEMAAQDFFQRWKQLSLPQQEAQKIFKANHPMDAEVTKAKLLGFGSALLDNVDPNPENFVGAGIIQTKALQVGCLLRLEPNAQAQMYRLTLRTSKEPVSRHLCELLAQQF
Chain of UniProt O95782 (B2R4Z4 whole entry, chain 2 of 2, further chain): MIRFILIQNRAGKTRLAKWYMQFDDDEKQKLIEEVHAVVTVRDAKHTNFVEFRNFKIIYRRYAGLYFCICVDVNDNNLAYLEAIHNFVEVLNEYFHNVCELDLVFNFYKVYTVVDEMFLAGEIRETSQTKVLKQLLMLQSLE

For orientation: Kd means the free concentration of one partner at which half of the binding sites on the other are occupied at equilibrium, for simple one-to-one binding. As to Nef (from UniProt P04324), the Kd in series [1] was 1000 nM; in the series with Hck SH3 (Homo sapiens), 260 nM; in the series with Hck (Homo sapiens) it was 200 nM; in series [2], 6000 nM.
